B1: VEGF165 3S: human VEGF165 with opposite charge substitutions R123E/R124E/R159E in the mature protein (protein, listed as Homo sapiens)
chain: APMAEGGGQNHHEVVKFMDVYQRSYCHPIETLVDIFQEYPDEIEYIFKPSCVPLMRCGGCCNDEGLECVPTEESNITMQIMRIKPHQGQHIGEMSFLQHNKCECRPKKDRARQENPCGPCSEEEKHLFVQDPQTCKCSCKNTDSRCKARQLELNERTCECDKPRR

Tests used:
[1] = system: 293/KDR cells; test: Proliferation of stably transfected 293/KDR cell lines in culture; format: cell-based; conditions: 293/KDR stable transfectants, days 3-5; p<0.001; FIG. 4E
Procedure: (§1) For proliferation assays, 293/KDR derived cell lines (5×10^4 cellsper well) were seeded in 6-well culture plates in quadruplicate. Cell number per well was measured after 2, 3, 4, and 5 days of growth by removing cells with trypsin, collecting via centrifugation and counting suspended cells in triplicate in a Cellometer Automatic Cell Counter (Nexcelom Bioscience, Lawrence, Mass.). Purified recombinant VEGF-A protein used as an external standard quantitation as VEGF mass per mass total extracted cell protein. KDR autophosphorylation in cell lysates was measured similarly; cultured cells were serum-deprived for 48 h, where noted cells were stimulated for 20 min with WT or 3S VEGF-A alone or in combination at the indicated concentrations, then extracted with ice cold buffer containing non-ionic detergent, protease and phosphatase inhibitors. Cleared extracts were applied to assay plates and processing per the manufacturer's instructions.
(§2) For proliferation assays, 293/KDR derived cell lines were seeded in 6-well culture plates in quadruplicate. Cell number per well was measured at regular intervals removal of adherent cells and counting in a Cellometer Automatic Cell Counter (Nexcelom Bioscience). Assays for colony formation in soft agar were performed as described (Castagnino et al., 2000).

[2] = system: 293/KDR cells; test: Soft agar colony formation (anchorage independent growth) of 293/KDR cells; format: cell-based; conditions: for soft agar colony formation by transfectants: 293/KDR cells stably transfected with expression plasmid, FIG. 4F; for inhibition of soft agar colony formation of 293/KDR cells stably transfected with VEGF165 WT: 3S protein at 0.06, 0.15 and 0.6 nM, pazopanib every other day at 0.3 and 3.0 nM over two weeks, FIG. 5C
Procedure: as §2
SoftAgar Colony Formation Assays for colony formation in soft agar (representative of anchorage independent growth) were performed and quantitated as described previously. Briefly, U87 MG cells and U87 MG cells transfected with a plasmid encoding NK1 60/62/73 were suspended in 0.5% Seaplaque agarose (1×10^5 cells) in growth medium in duplicate 60 mm dishes. Cell colonies were visualized after staining with p-iodotetrazolium violet by brightfield microscopy using an Olympus inverted microscope. Digital images were acquired and recorded using a CCD video camera and IP Lab software.

[3] = system: 293/KDR cells; test: KDR-driven tumorigenicity of 293/KDR transfectants implanted subcutaneously in mice; format: in vivo, SCID/Beige mice; conditions: 3×10^6 transfected 293/KDR cells per animal, subcutaneous, FIG. 5D
Excerpt: Additional control groups received the empty vector 293/KDR cells (3×10^6 per animal) or the empty vector cells combined with VEGF WT transfectants at 1.5×10^6 cells each. The latter group indicated the growth rate of tumors arising from 1.5×10^6 VEGF WT transfectants in the presence of “neutral” cells providing the same initial mass; a growth rate below this threshold in the group implanted with VEGF WT+VEGF 3S transfectants could be attributed to inhibition of VEGF WT-driven tumor growth by VEGF165 3S.
All experiments involving animals were performed in accordance with NIH Guidelines for Care and Use of Laboratory Animals using approved protocols. 293/KDR cells stably transfected with VEGF WT or 3S expression plasmids, or empty vector, were injected subcutaneously into SCID/Beige mice (Taconic, Inc.; 3×10^6 cells per animal total as indicated in the text, 5 mice/group) and tumor volumes were measured at regular intervals as described previously (Giubellino et al., 2007). Statistical analysis and curve fitting for all animal studies were performed using GraphPad Prism software version 5.0.
To test whether 3S VEGF could antagonize KDR-driven tumorigenicity in mice, groups of animals (n=5) were implanted subcutaneously with WT VEFG transfected 293/KDR cells (3×10^6 per animal), with the same number of 3S VEGF transfected cells, or with a suspension containing half the number of cells of each type. Additional control groups received the empty vector 293/KDR cells (3×10^6 per animal) or the empty vector cells combined with WT VEGF transfectants at 1.5×10^6 cells each. The latter group indicted the growth rate of tumors arising from 1.5×10^6 WT VEGF transfectants in the presence of “neutral” cells providing the same initial mass; a growth rate below this threshold in the group implanted with WT VEGF+3S VEGF transfectants could be attributed to inhibition by 3S VEGF. […]

[4] = Heparin-Sepharose mediated clustering (covalent affinity crosslinking); format: binding; conditions: conditioned media with Heparin Sepharose, BS3 crosslinking; FIG. 8
Procedure: These findings further support the mechanism of action of VEGF 3S as antagonism of HS binding to the VEGF/VEGFR complex leading to instability of ligand/receptor/HS complexes and consequent disruption of downstream signaling.
Covalent Affinity Crosslinking: Assays. […] Heparin Sepharose beads were used as both a source of heparin and to efficiently capture heparin-clustered VEGF from the conditioned media after crosslinking. Samples were then incubated with or without BS3 at room temperature for 1 h. After pelleting the beads by brief centrifugation, samples were obtained from the supernatants for SDS-PAGE and immunoblot analysis. The beads were then washed by five centrifugation/resuspension cycles in PBS, and bound proteins were eluted with boiling SDS-PAGE sample buffer. Supernatant and bead-captured samples were then resolved by SDS-PAGE under reducing conditions, transferred to PVDF and immunodetected with anti-VEGF antibody.

[5] = target: T1, KDR (Homo sapiens, UniProt P35968); test: Basal KDR tyrosyl phosphorylation in stably transfected 293/KDR cells; format: cell-based; conditions: 293/KDR stable transfectants after 24 h serum deprivation; FIG. 4D
T1 construct: host or cells: HEK293 (293/KDR)
Procedure: KDR autophosphorylation in cell lysates or tumor tissue extracts was measured similarly but included parallel detection with anti-receptor antibodies and specific anti-phospho-receptor antibodies or 4G10 (Millipore). […]
KDR tyrosyl phosphorylation in each cell line was measured after 24 h of serum deprivation (FIG. 4D). […]
Immunoassays: KDR and VEGF content in cell lysates, tissue extracts and conditioned media was determined using 2-site electrochemiluminescent immunoassays developed for use with the Meso Scale Discovery (MSD) SectorImager 2400 plate reader (Gaithersburg, Md.). […] GraphPad Prism software version 5.0 was used for all statistical analyses: protein content values determined by 2-site immunoassay were interpolated from standard curves by nonlinear regression analysis (4 parameter logistic equation); saturation and competitive binding curves were fit after determination of specific binding and assuming a one site binding model.

[6] = target: T1, KDR; test: Antagonism of VEGF165 WT-stimulated KDR autophosphorylation in 293/KDR cells; format: cell-based; conditions: VEGF165 10 ng/ml, serum-deprived 293/KDR cells; mock-immunodepleted conditioned media containing 2.5-fold molar excess VEGF 3S protein; FIG. 5B
Procedure: FIG. 5B. […] The x-axis indicates the concentration of VEGF165 3S protein (ng/ml) in the conditioned media prior to immunodepletion.
as §1, with “Cleared extracts were applied to assay plates and processing per the manufacturer's instructions.” left out
Since the conditioned media could contain other inhibitors of KDR activation, VEGF165 3S was selectively removed from the media by immunodepletion with anti-VEGF antibody. A mock-immunodepletion was performed in parallel using a non-specific antibody and the VEGF165 3S content of the anti-VEGF and mock-immunodepleted media was measured (FIG. 5A). […]

[7] = system: Akt activation in EA.hy 926 cells, which express VEGFR1 and R2; test: VEGF- or PlGF-induced Akt activation (phospho-Akt/total Akt) in EA.hy 926 cells; format: cell-based; conditions: FIG. 9A
Procedure: VEGF 3s blocked Akt activation by VEGF-A (dark circles) or P1GF (squares).
(§3) Thus the pattern of VEGF 3S inhibition followed the pattern of VEGF-A binding to VEGFR1 and R2, but not homodimers of VEGFR3, as anticipated. […] VEGF 3s blocked Akt activation by VEGF-A (dark circles) or P1GF (squares). […] SCC-25 cells express all three VEGFRs.
(§4) Immunoassays: KDR and VEGF content in cell lysates, tissue extracts and conditioned media was determined using 2-site electrochemiluminescent immunoassays developed for use with the Meso Scale Discovery (MSD) SectorImager 2400 plate reader (Gaithersburg, Md.). KDR activation in cell lysates or tumor tissue extracts included parallel detection with anti-receptor antibodies and specific anti-phospho-receptor antibodies or 4G10 (Millipore). Cell lysates were prepared similarly for analysis of activated (phospho-) Akt, and total Akt using immunoassays from MSD. All measurements were made on triplicate samples. GraphPad Prism software version 5.0 was used for all statistical analyses: protein content values determined by 2-site immunoassay were interpolated from standard curves by nonlinear regression analysis (4 parameter logistic equation); saturation and competitive binding curves were fit after determination of specific binding and assuming a one site binding model.

[8] = system: Akt activation in SCC-25 cells, which express VEGFR1, R2 and R3; test: VEGF-A- or VEGF-D-induced Akt activation in SCC-25 cells; format: cell-based; conditions: FIG. 9C
Procedure: SCC-25 cells express all three VEGFRs.
as §3, §4

[9] = target: T2, NRP1 (Homo sapiens, UniProt O14786); test: Covalent affinity crosslinking analysis of NRP1 binding; conditions: NRP1-Fc, BS3 crosslinking, conditioned media; FIG. 10A
T2 construct: purchased Sino Biologics
T2 sequence (O14786 22-644 isoform O14786-2 limits assumed): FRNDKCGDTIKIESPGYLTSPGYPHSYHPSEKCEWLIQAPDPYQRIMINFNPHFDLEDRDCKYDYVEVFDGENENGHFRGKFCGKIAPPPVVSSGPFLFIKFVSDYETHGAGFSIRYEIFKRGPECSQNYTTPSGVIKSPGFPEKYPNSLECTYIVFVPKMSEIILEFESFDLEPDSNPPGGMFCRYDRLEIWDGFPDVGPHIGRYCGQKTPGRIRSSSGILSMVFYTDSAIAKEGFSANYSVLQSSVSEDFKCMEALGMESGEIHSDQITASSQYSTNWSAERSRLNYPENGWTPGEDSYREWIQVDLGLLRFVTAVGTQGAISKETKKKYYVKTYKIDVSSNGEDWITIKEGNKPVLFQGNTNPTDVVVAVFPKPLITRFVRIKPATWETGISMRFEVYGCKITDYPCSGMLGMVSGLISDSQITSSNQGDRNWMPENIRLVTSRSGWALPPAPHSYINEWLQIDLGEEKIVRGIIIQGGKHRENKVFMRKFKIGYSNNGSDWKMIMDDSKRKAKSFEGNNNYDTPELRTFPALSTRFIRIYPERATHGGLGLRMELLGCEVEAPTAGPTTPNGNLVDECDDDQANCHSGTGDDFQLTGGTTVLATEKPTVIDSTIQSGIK
Procedure: Purified recombinant NRP1-Fc (Sino Biologics) was added as indicated (−NRP1 or +NRP1) to 24 h conditioned media from vector transfected 293/KDR cells(left lanes), 293/KDR/VEGF 3S transfectants (middle lanes), or 293/KDR/VEGF WT transfectants (right lanes) in the absence (−) or presence (+) of the crosslinking reagent BS3 (Thermo Fisher Pierce). Samples were resolved by SDS-PAGE under reducing conditions, transferred to PVDF and immunodetected with anti-Fc antibody (top panel; Thermo Fisher Pierce) or anti-VEGF (lower panels; R&D Systems). A 160 kDa band, consistent with a 1:1 complex of NRP1-Fc and VEGF dimer, was detected by both antibodies specifically in the presence of NRP1-Fc in media from 293/KDR/VEGF 3S transfectants and 293/KDR/VEGF WT transfectants but not the vector control. […] Dimeric VEGF (44 kDa) is captured from both 293/KDR/VEGF 3S media and 293/KDR/VEGF WT media only in the presence of BS3 in the reducing SDS-PAGE conditions used.

T1 sequence (P35968 20-1356): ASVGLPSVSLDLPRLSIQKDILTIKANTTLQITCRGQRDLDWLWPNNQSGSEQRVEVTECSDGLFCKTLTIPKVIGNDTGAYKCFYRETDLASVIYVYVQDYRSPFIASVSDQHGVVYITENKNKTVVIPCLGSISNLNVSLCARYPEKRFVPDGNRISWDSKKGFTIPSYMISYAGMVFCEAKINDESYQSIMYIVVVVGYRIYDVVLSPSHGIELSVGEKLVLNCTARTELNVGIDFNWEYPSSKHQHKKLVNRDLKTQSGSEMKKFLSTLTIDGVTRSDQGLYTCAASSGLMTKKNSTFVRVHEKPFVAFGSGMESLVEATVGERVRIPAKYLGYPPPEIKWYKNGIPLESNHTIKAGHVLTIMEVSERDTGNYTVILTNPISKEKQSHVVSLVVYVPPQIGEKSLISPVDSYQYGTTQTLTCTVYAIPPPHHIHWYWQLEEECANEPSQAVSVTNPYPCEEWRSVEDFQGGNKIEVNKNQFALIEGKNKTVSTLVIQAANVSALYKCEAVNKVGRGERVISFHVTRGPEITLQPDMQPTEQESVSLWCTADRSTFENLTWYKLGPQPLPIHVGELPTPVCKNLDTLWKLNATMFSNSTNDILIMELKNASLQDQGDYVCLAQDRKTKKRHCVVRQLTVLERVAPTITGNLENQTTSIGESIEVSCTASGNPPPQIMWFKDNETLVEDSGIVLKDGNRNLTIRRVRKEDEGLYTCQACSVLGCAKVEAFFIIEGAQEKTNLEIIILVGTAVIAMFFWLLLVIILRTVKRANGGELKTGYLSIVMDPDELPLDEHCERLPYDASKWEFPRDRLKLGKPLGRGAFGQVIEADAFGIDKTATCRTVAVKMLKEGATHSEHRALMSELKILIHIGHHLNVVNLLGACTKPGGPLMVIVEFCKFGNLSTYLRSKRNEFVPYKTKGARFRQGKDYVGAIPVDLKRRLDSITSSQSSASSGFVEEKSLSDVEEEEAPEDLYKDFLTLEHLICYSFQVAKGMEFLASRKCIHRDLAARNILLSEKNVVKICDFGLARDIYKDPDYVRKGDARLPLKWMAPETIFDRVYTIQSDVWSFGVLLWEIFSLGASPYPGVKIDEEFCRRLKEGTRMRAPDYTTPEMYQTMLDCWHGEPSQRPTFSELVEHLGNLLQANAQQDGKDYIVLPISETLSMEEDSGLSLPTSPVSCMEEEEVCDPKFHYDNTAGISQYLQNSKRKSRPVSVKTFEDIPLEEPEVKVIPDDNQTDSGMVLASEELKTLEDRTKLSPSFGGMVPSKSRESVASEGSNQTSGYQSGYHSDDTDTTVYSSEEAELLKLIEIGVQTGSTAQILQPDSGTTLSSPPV

Molecule	cell proliferation rate in culture [1]	soft agar colony formation by transfectants [2]	soft agar colony formation by transfectants ([2]; listed as WT VEGF165)	tumor formation by implanted transfectants [3]	heparin-promoted clustering (oligomerization) [4]	basal KDR phosphorylation level compared with empty vector transfectants [5]	inhibition of soft agar colony formation of 293/KDR cells stably transfected with VEGF165 WT [2]	inhibition of soft agar colony formation of 293/KDR cells stably transfected with VEGF165 WT ([2]; listed as 3S VEGF)	inhibition of KDR autophosphorylation stimulated by purified VEGF165 protein [6]	tumor formation by implanted transfectants ([3]; listed as 3S VEGF)	tumor formation by implanted transfectants ([3]; listed as VEGF 3S)	inhibition of PlGF-induced Akt activation (phospho-Akt/total Akt) [7]	inhibition of VEGF-A-induced Akt activation (phospho-Akt/total Akt) [7]	inhibition of PlGF-induced Akt activation (phospho-Akt/total Akt) ([7]; listed as VEGF 3s)	antagonism of Akt activation by VEGF-A ([8]; VEGF-A at 100 pM)	block of Akt activation induced by VEGF-D ([8]; VEGF-D at 1000 pM)	binding to NRP1 in vitro [9]
VEGF165 WT: native mature human vascular endothelial growth factor A isoform of 165 amino acids	grew significantly faster	grew robustly	robust anchorage independent growth	formed tumors fastest	promoted clustering	–	–	–	–	–	–	–	–	–	–	–	–
B1	–	grew modestly, if at all	–	–	–	indistinguishable	significant, dose-dependent inhibition	substantial and dose-dependent inhibition	> 80%	tumors grew most slowly	did not form tumors prior to study termination	potency similar to pazopanib	blocked	blocked	antagonism	did not block	bound similarly
